Measured values taken from patent US9523084B2, “Phosphodeoxyribosyl transferase mutant enzymes and uses thereof” (Centre National De La Recherche Scientifique, priority 2012, dated 2016).
Changes are numbered by the printed parent chain. Names may count otherwise.

Legend:
[1] = substrate: Nc1ccn([C@H]2C[C@H](O)[C@@H](COP(=O)(O)O)O2)c(=O)n1; assay: Kinetic parameters of PDT variants, dCMP + A ⇄ dAMP + C; type: biochemical, Lactobacillus leichmannii; conditions: adenine as acceptor, fixed, 37.0 °C
Experimental: (§1) The standard assay (“first protocol for enzyme assay”) for the different NDTs consisted of 5-15 μg of NDT in 50 mM MES buffer pH 6.0, dNxP (dNMP, or dNDP or dNTP) 3 mM and a base 1 mM in a total volume of 50 μL. Assays were incubated for 60 min at 37° C. The products of the reactions were analyzed each 7 min by Rapid resolution high performance liquid chromatography using a reverse-phase column (ZORBAX Eclipse XDB-C18 2.1*50 mm 1.8 μM) with a flow rate of 0.25 ml/min and a linear gradient of 1-12% CH3CN (2-25% CH3CN or 1-90% CH3CN) in 20 mM triethylammonium acetate, pH 7.5, buffer for 7 min. The low resolution mass spectra of the newly synthesized deoxyribonucleotides were obtained on an Agilent 1200 series LC/MS 6120 quadrupole system using an atmospheric electrospray ionization system.
This hypothesis was confirmed by monitoring the specific activity, in the presence of dCDP or dCTP as donor and adenine as acceptor (see table 2 above). The kinetic parameters were determined for the best variants with dCMP, dCDP and dCTP as substrates, at a concentration of A being fixed (see table 3 below).

[2] = Catalytic activity of PDTT2 to PDTT7, dATP formed (HPLC); type: biochemical; conditions: dCTP + A ⇄ dATP + C; 2 mM dCTP, 1 mM Adenine, 37° C., MES 50 mM pH6.0
Experimental: In specific cases, an alternative protocol was used to perform the enzyme assay. In this second protocol, the dNxP (dNMP, or dNDP or dNTP) concentration was of only 2 mM, instead of 3 mM. All of the other conditions were identical to those of the first protocol.
The catalytic activity of the mutant enzymes PDTT2, PDTT3, PDTT3b, PDTT4, PDTT5, PDTT6, PDTT7 has been compared. Briefly, a sufficient amount of enzyme mutant necessary to obtain a linear reaction over a period of one hour at 37° C. has been mixed in 2 mM dCTP and 1 mM Adenine in a final volume of 50 μL of MES buffer 50 mM pH6.0. Assays were incubated for 60 min at 37° C. The products of the reactions were analyzed each 7 min by Rapid resolution high performance liquid chromatography using a reverse-phase column (ZORBAX Eclipse XDB-C18 2.1*50 mm […]) with a flow rate of 0.25 ml/min and a linear gradient of 1-12% CH3CN (2-25% CH3CN or 1-90% CH3CN) in 20 mM triethylammonium acetate, pH 7.5, buffer for 7 min.

[3] = substrate: Nc1ncnc2c1ncn2[C@H]1C[C@H](O)[C@@H](COP(=O)(O)OP(=O)(O)OP(=O)(O)O)O1; assay: Spectrophotometric assay coupled to xanthine oxidase, dATP + C ⇄ dCTP + A; type: biochemical, Lactobacillus leichmannii; conditions: other: PDTT4, 1 mM cytosine, 50 mM MES pH6.0, 37° C., pH 6.0
Experimental: Further, the cinetic parameters of these mutant enzymes were analysed, using a specific spectrophotometric assay. Briefly, the assay consists in measuring the formation of the final product (2,8 dihydroxyadenine) of the reaction:
Briefly, the assay was performed using the coupling of two enzymes: the variant (PDTT2, PDTT4, PDTT5, PDTT6, or PDTT7) to be tested and xanthine oxidase (obtained from Roche). The reaction mixture contained varying concentrations of dATP, 1 mM cytosine in a 50 mM MES buffer pH6.0 at 37° C. The reaction was initiated by adding 30 units of the purified variant to be tested and xanthine oxidase (Roche). The released adenine was then oxidized in 2,8-dihydroxyadenine which absorbs at 301 nm. The formation (i.e. concentration) of 2,8 dihydroxyadenine was measured by spectrophotometry.

[4] = Standard enzyme assay (HPLC): specific activities of PDT variants with natural purines and pyrimidines; type: biochemical; conditions: donor 3 mM, acceptor 1 mM
Experimental: as §1
Unless specifically mentioned, the results presented hereafter have been obtained by using the first protocol for performing the enzyme assay.

[5] = In vitro synthesis of deoxynucleotide analogues: specific activities; type: biochemical
Experimental: as §1
The donor concentration was 3 mM and the acceptor 1 mM except for dCTP 2 mM 5-BrU 1 mM and dAMP 2 mM 5-FU 1 mM. Activities are expressed in nanomoles of deoxynucleotides synthesized per min per mg of protein.

B1: Lactobacillus leichmannii nucleoside deoxyribosyltransferase (NDT, SEQ ID NO:1) variant PDTM3, R13 S92 (F13R/D92S), SEQ ID NO:5 (Lactobacillus leichmannii; … (protein)
chain: MPKKTIYFGAGWRTDRQNKAYKEAMEALKENPTIDLENSYVPLDNQYKGIRVDEHPEYLHDKVWATATYNNDLNGIKTNDIMLGVYIPDEESVGLGMELGYALSQGKYVLLVIPDEDYGKPINLMSWGVSDNVIKMSQLKDFNFNKPRFDFYEGAVY
notes: homohexamer (108 kDa)
Km ([1]; other: PDTM3): 22 mM
kcat ([1]; other: PDTM3): 0.3 s⁻¹

B2: PDTT4: PDTT2 mutant with Serine at position 93 and Lysine at position 157, SEQ ID NO:40 (protein)
chain: B1 chain with E91Q, S92G, V93S, N123S, Y157K
modifications: amino acid sequence of PDTT4 (G92/S123/R13/S93/K157/Q91)
Catalytic activity (nmol of dATP formed/min/mg of enzyme protein) [2]: 10.4 nmol of dATP formed/min/mg of enzyme protein

B3: Lactobacillus leichmannii nucleoside deoxyribosyltransferase (NDT, SEQ ID NO:1) variant PDTM4, R13 S92 S123 (F13R/D92S/N123S), SEQ ID NO:6 (Lactobacillus … (protein)
chain: B1 chain with N123S
notes: homohexamer (108 kDa)
Km ([1]; other: PDTM4): 11 mM
kcat ([1]; other: PDTM4): 2.1 s⁻¹

B4: Lactobacillus leichmannii nucleoside deoxyribosyltransferase (NDT, SEQ ID NO:1) variant PDTT0, R13 G92 T93 S123 (F13R/D92G/V93T/N123S), SEQ ID NO:8 … (protein)
chain: B1 chain with S92G, V93T, N123S
notes: homohexamer (108 kDa)
Km ([1]; other: PDTT0): 9.2 mM
kcat ([1]; other: PDTT0): 0.45 s⁻¹

B5: Lactobacillus leichmannii nucleoside deoxyribosyltransferase (NDT, SEQ ID NO:1) variant PDTM5, Q13 S92 S123 (F13Q/D92S/N123S), SEQ ID NO:7 (Lactobacillus … (protein)
chain: B1 chain with R13Q, N123S
notes: homohexamer (108 kDa)
Km ([1]; other: PDTM5): 12 mM
kcat ([1]; other: PDTM5): 1.99 s⁻¹

B6: PDTT5: PDTT3 mutant with Arginine at position 157, SEQ ID NO:41 (protein)
chain: B1 chain with E91Q, S92G, V93P, N123S, Y157R
modifications: amino acid sequence of PDTT5 (G92/S123/R13/P93/R157/Q91)
Catalytic activity (nmol of dATP formed/min/mg of enzyme protein) [2]: 27 nmol of dATP formed/min/mg of enzyme protein

B7: Lactobacillus leichmannii nucleoside deoxyribosyltransferase (NDT, SEQ ID NO:1) variant PDTT4, R13 Q91 G92 S93 S123 K157 (F13R/E91Q/D92G/V93S/N123S/Y157K), SEQ … (protein)
chain: B1 chain with E91Q, S92G, V93S, N123S, Y157K
notes: xanthine oxidase is coupling enzyme only
Km [3]: 2.3 mM
kcat [3]: 8.8 s⁻¹
kcat/Km [3]: 3800 M⁻¹ s⁻¹

B8: PDTT3b: PDTT2 mutant with Glycine (G) at position 93 and Lysine at position 157, SEQ ID NO:39 (protein)
chain: B1 chain with E91Q, S92G, V93G, N123S, Y157K
modifications: amino acid sequence of PDTT3b (G92/S123/R13/G93/K157/Q91)
Catalytic activity (nmol of dATP formed/min/mg of enzyme protein) [2]: 6.5 nmol of dATP formed/min/mg of enzyme protein

B9: PDTT3: PDTT2 mutant with Proline at position 93 and Lysine at position 157, SEQ ID NO:38 (protein)
chain: B1 chain with E91Q, S92G, V93P, N123S, Y157K
modifications: amino acid sequence of PDTT3 (G92/S123/R13/P93/K157/Q91)
Catalytic activity (nmol of dATP formed/min/mg of enzyme protein) [2]: 2.7 nmol of dATP formed/min/mg of enzyme protein

B10: PDTT2: NDT mutant R13 Q91 G92 T93 S123, SEQ ID NO:10 (protein)
chain: B1 chain with E91Q, S92G, V93T, N123S
modifications: PDTT2 enzyme mutant
Specific activity ([4]; dADP + C ⇄ dCDP + A): 8 nanomoles of deoxynucleotides synthesized per min per mg of protein
Specific activity ([4]; dADP + Hx ⇄ dIDP + A): <0.1 nanomoles of deoxynucleotides synthesized per min per mg of protein
Specific activity ([4]; dAMP + C ⇄ dCMP + A): 31 nanomoles of deoxynucleotides synthesized per min per mg of protein
Specific activity ([4]; dAMP + Hx ⇄ dIMP + A): <0.1 nanomoles of deoxynucleotides synthesized per min per mg of protein
Specific activity ([4]; dATP + C ⇄ dCTP + A): 15 nanomoles of deoxynucleotides synthesized per min per mg of protein
Specific activity ([4]; dATP + Hx ⇄ dITP + A): <0.1 nanomoles of deoxynucleotides synthesized per min per mg of protein
Specific activity ([4]; dCDP + A ⇄ dADP + C): 66 nanomoles of deoxynucleotides synthesized per min per mg of protein
Specific activity ([4]; dCDP + U ⇄ dUDP + C (U used as acceptor base instead of T)): 8 nanomoles of deoxynucleotides synthesized per min per mg of protein
Specific activity ([4]; dCMP + A ⇄ dAMP + C): 286 nanomoles of deoxynucleotides synthesized per min per mg of protein
Specific activity ([4]; dCMP + T ⇄ dTMP + C): 1.1 nanomoles of deoxynucleotides synthesized per min per mg of protein
Specific activity ([4]; dCTP + A ⇄ dATP + C): 51 nanomoles of deoxynucleotides synthesized per min per mg of protein
Specific activity ([4]; dCTP + T ⇄ dTTP + C): 1.4 nanomoles of deoxynucleotides synthesized per min per mg of protein
Specific activity ([4]; dGDP + A ⇄ dADP + G): 33 nanomoles of deoxynucleotides synthesized per min per mg of protein
Specific activity ([4]; dGMP + A ⇄ dAMP + G): 50 nanomoles of deoxynucleotides synthesized per min per mg of protein
Specific activity ([4]; dGTP + A ⇄ dATP + G): 36 nanomoles of deoxynucleotides synthesized per min per mg of protein
Catalytic activity (nmol of dATP formed/min/mg of enzyme protein) [2]: 9.6 nmol of dATP formed/min/mg of enzyme protein
Specific activity ([5]; dAMP + 5-FU → A + 5-F-dUMP, dAMP 2 mM 5-FU 1 mM): 48.4 nanomoles of deoxynucleotides synthesized per min per mg of protein
Specific activity ([5]; dCMP + 2,6-D → C + 2,6-DMP, donor 3 mM, acceptor 1 mM): 95.8 nanomoles of deoxynucleotides synthesized per min per mg of protein
Specific activity ([5]; dCMP + 2,6-chloropurine → C + 2,6-dichloropurine 2′-deoxyribose 5′-monophosphate, donor 3 mM, acceptor 1 mM): 37 nanomoles of deoxynucleotides synthesized per min per mg of protein
Specific activity ([5]; dCMP + 5-BrU → C + 5-Br-dUMP, donor 3 mM, acceptor 1 mM): 10.7 nanomoles of deoxynucleotides synthesized per min per mg of protein
Specific activity ([5]; dCMP + 6-chloropurine → C + 6-chloropurine 2′-deoxyribose 5′-monophosphate, donor 3 mM, acceptor 1 mM): 75 nanomoles of deoxynucleotides synthesized per min per mg of protein
Specific activity ([5]; dCTP + 2,6-D → C + 2,6-DTP, donor 3 mM, acceptor 1 mM): 17 nanomoles of deoxynucleotides synthesized per min per mg of protein
Specific activity ([5]; dCTP + 2,6-chloropurine → C + 2,6-dichloropurine 2′-deoxyribose 5′-triphosphate, donor 3 mM, acceptor 1 mM): 14 nanomoles of deoxynucleotides synthesized per min per mg of protein
Specific activity ([5]; dCTP + 5-BrU → C +5-Br-dUTP, dCTP 2 mM 5-BrU 1 mM): 12 nanomoles of deoxynucleotides synthesized per min per mg of protein
Specific activity ([5]; dCTP + 5-FU → C + 5-F-dUTP, donor 3 mM, acceptor 1 mM): 39.4 nanomoles of deoxynucleotides synthesized per min per mg of protein
Specific activity ([5]; dCTP + 6-chloropurine → C + 6-chloropurine 2′-deoxyribose 5′-triphosphate, donor 3 mM, acceptor 1 mM): 15 nanomoles of deoxynucleotides synthesized per min per mg of protein
Specific activity ([5]; dCTPαS + A → C + dATPαS, donor 3 mM, acceptor 1 mM): 54 nanomoles of deoxynucleotides synthesized per min per mg of protein
